# Results: the supplement of paper PMC9170038
# System: MS2 coat protein
# Assay: apparent KD of MS2 coat protein; designed switch direction (-1 OFF switch, 1 ON switch): -1; higher = weaker reporter binding
# Outline: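 The buffer was Tris-HCl pH 7.5 with KCl, MgCl2, BSA, DTT, tRNA and Tween-20. In it, SNAP-549-labelled MS2 coat protein was titrated in doubling steps from 0.7 or 1.5 nM to 3 µM over chip-bound RNA switches transcribed by stalled E. coli RNA polymerase on Illumina chips. Apparent KD is the per-design median over clusters of curve fits to normalised fluorescence.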
# [1] = input ligand: microRNA oligo, concentration not stated
# [2] = Eterna round: R95, input ligand: microRNA oligo, concentration not stated
# [3] = Eterna round: R95, input ligand: FMN 200 uM
# [4] = Eterna round: R95, input ligand: none
Sequence,apparent KD of MS2 coat protein (input ligand: FMN 200 uM),apparent KD of MS2 coat protein [1],apparent KD of MS2 coat protein (input ligand: none),apparent KD of MS2 coat protein [2],apparent KD of MS2 coat protein [3],apparent KD of MS2 coat protein [4]
"GCGGAGUAUGUAGGAUAUCGGUCAGUUUCUGAUCGAGAAGGACAUGAGGAUCACCCAUGUAAAUUCCUCGCUUUGUGAGGCCGC [JL ENG1 3.65] (Eterna round: R96, puzzle: Exclusion NG 1)",21.6 nM,12.8 nM,17.1 nM,–,–,–
"GCGGGCUUUUAGGUUCUUAACAUGAGGAUCACCCAUGUGCUCGUCUUGCCGGCCGGCGGGCCGCCGGCCGGGCUUGU (Eterna round: R97, puzzle: Sensor, turn-off variant 1)",66.4 nM,–,68.2 nM,–,–,–
"GCGUACUGAGGAUAUACAUGAGGAUCACCCAUGUGACACAGCAUUUAUUGAUAAAUUUGUAGAAGGCAGUAGGC [JR_Ex3_Sub059] (Eterna round: R97, puzzle: Exclusion 3)",144 nM,–,25 nM,–,–,–
"GCGUACUGAGGAUAUACAUGAGGAUCACCCAUGUGACUAAGAUUUUAGUGAUGAUUUUGUAGAAGGCAGUAUGC [JR_Ex3_Sub061] (Eterna round: R97, puzzle: Exclusion 3)",344 nM,–,91.4 nM,–,–,–
GCGUAUGAGCAGGAUAUCCGACGGGAAUCCAAAGGAGAAGGGCUCACAUGAGGAUCACCCAUGUGGUCCUAAAC [Vequat] (puzzle: Exclusion 6),–,–,–,19.4 nM,–,–
GCGUCGAGUGUGAGGAUAUGCUGGUCCUUGGAUCAGCAGAAGGCACAUGAGGAUCACCCAUGUGAAUACGAUGC [JL bmx4 3.14] (puzzle: Brourd's mod of Exclusion 4),–,–,–,21.2 nM,–,–
"GCUAGAGCAGGAUAUUUAAAUCCUCACAUGAGGAUCACCCAUGUAGUCGAAAGACUAAGAAGAGAAGGGCUCUAGC [Omei Ex5 E20] (Eterna round: R97, puzzle: Exclusion 5)",951 nM,–,230 nM,–,–,–
"GCUAGAGCAGGAUAUUUAGAUCCUCACAUGAGGAUCACCCAUGUGGCCGAAAGGCUAAGAAGAGAAGGGCUCUAGC [Omei Ex5 E22] (Eterna round: R97, puzzle: Exclusion 5)",199 nM,–,789 nM,–,–,–
"GCUAGGAAUGUCAGGAUAUGCUGUUCCUUGGAACAGCAGAAGGGACAUGAGGAUCACCCAUGUGCUAACCUAGC [Mat - Exclusion 4 - JL Mod - D5] (Eterna round: R97, puzzle: Brourd's mod of Exclusion 4)",99.2 nM,–,24.4 nM,–,–,–
"GCUCGCGGGCAAGGAUAUCCCACGCUGUUCUGGCCCGUGUCUGUUACAUGAGGAUCACCCAUGUGGGAGAAGGUGCACCAGGGC [Design 45] (Eterna round: R96, puzzle: Exclusion NG 2)",115 nM,26.8 nM,44.1 nM,–,–,–
"GCUCUGUGAGGAUAUAUAACGCAUUGGAUAGUGAAACUUAGACAUGAGGAUCACCCAUGUAGAAGGUACGGUAG [Eternabot (L2) Solution 76] (Eterna round: R97, puzzle: Exclusion 2)",77.8 nM,–,99 nM,–,–,–
"GCUGAUCGGCUAGGAUAUACAUUGAUCCUAGGAGGCUAAGCCUCAAAGACAUGAGGAUCACCCAUGUAGAAGGAGCAGCAGUAA [Armaonve] (Eterna round: R96, puzzle: Exclusion NG 2)",103 nM,23.3 nM,39.4 nM,–,–,–
"GCUGCAAAUGUAGGAUAUCUGCACGAUUAGUGCAGAGAAGGACAUGAGGAUCACCCAUGUAGAUCAGCAGCAAUUAAUUUAAUU [ENG1/5-A1] (Eterna round: R96, puzzle: Exclusion NG 1)",413 nM,42.1 nM,41.5 nM,–,–,–
GCUGCGCGAGGAUAUGCGGUUCGCGCUGUGGCCCGUGGCGCACAUGAGGAUCACCCAUGUAGAAGGCGUGCGGG [Apr-15 SS2-57] (puzzle: Exclusion 2),–,–,–,9.52 nM,–,–
"GCUGGAAGAGGAUAUACAUAACGUGCGUCAGCACGAGGCCUACAUGAGGAUCACCCAUGUAGAAGGCUUCCAGC [EX2 #77] (Eterna round: R97, puzzle: Exclusion 2)",27.9 nM,–,15.5 nM,–,–,–
"GCUGGACGAGGAUAUGCAAUCGUGCUUCGGCACGUAAGGUCACAUGAGGAUCACCCAUGUAGAAGGUGUCCAGC [E2/4-B2] (Eterna round: R97, puzzle: Exclusion 2)",31.1 nM,–,20.5 nM,–,–,–
"GCUGGUCGAGGAUAUACAUGAGGAUCACCCAUGUGGUCACGUGACUUCGGUCACGAAUGUAGAAGGCGACCAGC [E3/3-A4] (Eterna round: R97, puzzle: Exclusion 3)",65.8 nM,–,610 nM,–,–,–
"GCUUAACAUGUAGGAUAUGCGUGGCGAAGCUAUGCAGAAGGACAUGAGGAUCACCCAUGUUUUAGCGUCUGCGUACAGAUGCGU [JL ENG1 1.42] (Eterna round: R96, puzzle: Exclusion NG 1)",178 nM,19.8 nM,22.4 nM,–,–,–

Sequence,apparent KD of MS2 coat protein (input ligand: FMN 200 uM),apparent KD of MS2 coat protein [1],apparent KD of MS2 coat protein (input ligand: none),apparent KD of MS2 coat protein [2],apparent KD of MS2 coat protein [3],apparent KD of MS2 coat protein [4]
"GCUUAGGAAGGAUAUACAUGAGGAUCACCCAUGUUGACGCGGUAGGGCCCGGUAGCACGUAGAAGGUCUAUAGC [Eternabot (L2) Solution 46] (Eterna round: R97, puzzle: Exclusion 3)",28.5 nM,–,19.4 nM,–,–,–
"GCUUGUGGGCAAGGAUAUCCUGCGCUGUUCUGGUUCGUGUCUGUCACAUGAGGAUCACCCAUGUGGGAGAAGGUGCCUUUGGCG [Design 65] (Eterna round: R96, puzzle: Exclusion NG 2)",12.5 nM,10.5 nM,13.2 nM,–,–,–
GGAAAGCAAGGAUAUACGAGGAGAAGGAGGAAAGUUAAAGGACAUGAGGAUCACCCAUGUAGAAGGUGCGAGAG [JR_Exclu2_Sub041] (puzzle: Exclusion 2),–,–,–,30.7 nM,30 nM,34.6 nM
"GGAACGGCGAACAAGGCCCACAUGAGGAUCACCCAUGUGGCUGGGUGAUCUCGCUCGUCUUAUAUAUGGCUGGACCG [salish99-s2-off-006] (Eterna round: R96, puzzle: Sensor v2, turn-off variant)",146 nM,23.8 nM,104 nM,–,–,–
"GGAAGGAAGGAACAAGUUAACAUGAGGAUCACCCAUGUUGACUUCAUGUGCACGCAAAGCGUGCAAGCUCGUCUUAU [AK-miRNA-r3-16] (Eterna round: R97, puzzle: Sensor, turn-off variant 1)",18.3 nM,–,17.3 nM,–,–,–
GGAAGGUCAGGAUAUGCGAGGGAGUGGGAAGUAGCAUGGUAGCAGAAGGGACAUGAGGAUCACCCAUGUUAGGA [JR_Exclu4_Sub0102] (puzzle: Exclusion 4),–,–,–,28.7 nM,35.2 nM,40.7 nM
GGAAUACAUGAGGAUCACCCAUGUAAGGAUAUGCUGAUUAACACGGAAUAAUUAUGCAGCAGAAGGUACAAAGG [Mat - Mod of my Eli Mod D48] (puzzle: Exclusion 1),–,–,–,113 nM,–,–
"GGACAGGGAGGAUAUACUUGAGGAUCACCCAAGUCGUAUAAUCGAUGAUCACGCCGAAGUAGAAGGCCCAAAAC [EX3 #82] (Eterna round: R97, puzzle: Exclusion 3)",36.1 nM,–,353 nM,–,–,–
"GGACCACAUGAGGAUCACCCAUGUCAGGAUAUGACGGCGUCGGCGAAAGCGGAGGCGGUCAGAAGGGACGGUAA [AK-MS2ROC-r4-exclusion1-10] (Eterna round: R97, puzzle: Exclusion 1)",72.3 nM,–,32.4 nM,–,–,–
"GGACCGAUAGGAUAUGUCGUUGCAUACAUGAGGAUCACCCAUGUGAACCCUUGGUGAACUGCAGAAGGAUUGCGCA [Eternabot (L1) Solution 41] (Eterna round: R97, puzzle: Exclusion 5)",240 nM,–,221 nM,–,–,–
"GGACCGAUUGUUAGGAUAUCGCACGGCUAGCCCAGCGAGAAGGGACAUGAGGAUCACCCAUGUGCGCUUAGCAC [Eternabot (L1) Solution 50] (Eterna round: R97, puzzle: Brourd's mod of Exclusion 4)",156 nM,–,155 nM,–,–,–
"GGACCGUGUGUGAGGAUAUGCUGGUCCUUGGAUCAGCAGAAGGCACAUGAGGAUCACCCAUGUGGUGUCGGUCC [Eli bmx4 4.35] (Eterna round: R97, puzzle: Brourd's mod of Exclusion 4)",182 nM,–,1780 nM,–,–,–
"GGACCUCCUGAGGAUAUUGUAUCACCUGACUGAUAAGAAGGCAGAACAUGAGGAUCACCCAUGUGGGUACUCGG [Bingo-Bango-15] (Eterna round: R97, puzzle: Exclusion 6)",147 nM,–,190 nM,–,–,–
"GGAGAAGUAGGAUAUACAUGAGGAUCACCCAUGUUUUAAUUAAUAUAUGGAAUAGUAAGUAGAAGGAUUAAGUU [A finsh] (Eterna round: R97, puzzle: Exclusion 3)",35.4 nM,–,38.4 nM,–,–,–
"GGAGAGGUAGGAUAUGGACCUUAGAACAUGAGGAUCACCCAUGUAGGACCACAUGAAAUGCCAGAAGGACCAGUCC [AK-MS2ROC-r4-exclusion5-5] (Eterna round: R97, puzzle: Exclusion 5)",153 nM,–,145 nM,–,–,–
"GGAGCAAAUGUCAGGAUAUCGUGGUCGAUAGAUCACGAGAAGGGACAUGAGGAUCACCCAUGUCAGUCCGCUCC [Mat - Exclusion 4 - Eli Mod - D58] (Eterna round: R97, puzzle: Brourd's mod of Exclusion 4)",22 nM,–,14.3 nM,–,–,–
GGAGCGGAAGGAUAUGCUGCGGGAUUGCAUGGAAAGAAAAUACAUGAGGAUCACCCAUGUAGAAGGUCCGUGAA [Uslequ] (puzzle: Exclusion 2),–,–,–,24.8 nM,–,–
